Data reported in publication PMC4429956.

Tests used:
[1] = biological target: fluorescent H3K4me3 peptide; test: fluorescence polarisation; increasing concentrations of TAF3 PHD finger with fluorescent H3K4me3 peptide, no PI; apparent KD
[2] = biological target: fluorescent H3K4me3 peptide; test: fluorescence polarisation; increasing concentrations of TAF3 PHD finger with fluorescent H3K4me3 peptide, with a 5-fold molar excess of PI5P; apparent KD

Kd [1]: 1000 nM | Kd [2]: 3500 nM
B1: GST-TAF3 PHD finger, wild type (domain or fragment)
chain: IWICPGCNKPDDGSPMIGCDDCDDWYHWPCVGIMTAPPEEMQWFCPKCANKKKDKKHKKRKHRAH
modifications: not checked
